Patent publication US12616648B2, “Cosmetic composition” (GIVAUDAN SA, priority 2018, dated 2026)

Test system: Normal Human Keratinocytes (NHEKs)
Test: NHEK scratch assay (wound healing)
Format: cell-based
Conditions: HB-EGF 1 ng/ml (positive control), overnight pre-incubation, 8 h after scratch
Protocol: Normal Human Keratinocytes (NHEKs) were seeded at 200′000 cells per well pre-coated with Type I collagen in 12-wells culture plates in the presence of keratinocyte growth medium (KGM, Lonza) supplemented with growth factors such as hydrocortisone, transferrin, epinephrine, bovine pituitary extract (BPE), recombinant human epidermal growth factor (rhEGF) and insulin. At confluence, cells were pre-incubated with the Patchouli stem extract of Example 1 at a concentration of 0.5% (v/v) or heparin-binding epidermal growth factor (HB-EGF) at 1 ng/ml (positive control) overnight in keratinocyte basal medium without supplement. After this pre-conditioning phase, the cell monolayer sticking to the bottom of the well was scratched with a P200 sterile cone, followed by two washes with phosphate buffered saline (PBS). The NHEK were then again stimulated with Patchouli extract at 0.5% or HB-EGF at 1 ng/ml for 8 h in basal medium.
The wound healing process was analyzed by pictures recording at T0 and T8h using inverting optical microscope (Zeiss). After image analysis, the percentage of scratch closing was determined relative to untreated condition.

B1: HB-EGF: heparin-binding epidermal growth factor, positive control in the scratch assay (protein, UniProt Q99075 63-148, looked up)
Heparin-binding EGF-like …: DLQEADLDLLRVTLSSKPQALATPNKEEHGKRKKKGKGLGKKRDPCLRKYKDFCIHGECKYVKELRAPSCICHPGYHGERCHGLSL
wound healing (scratch closing relative to untreated condition): about +60%
